These are literature values, as cited in paper PMC8329073.

This series has as its target Thrombin (UniProt P00734+P00734). To be noted: 20 mM Tris-HCl pH 7.5 (22 °C), 100 mM NaCl, 0.1 mM EDTA, 5 mM MgCl2 (20 mM MgCl2 for DNAzyme), room temperature; indirect read-out by strand-displacement ….

Regarding thrombin DNA aptamer (parent, ref 67), the dissociation constant (Kd) is 0.5 nM.
